# The DeepSol protein solubility set
# Assay: soluble on expression in E. coli; label from the status in PepcDB or PDB records
row,Sequence,soluble on expression in E. coli
1,MRMGRYFGTSGIREVVNEKLTPELALKVGLALGTYLQEGKVVIGCDTRTSSVMLKNAVISGLLATGIDVIDIGLAPTPLTGFAIRLYNAEAGVTITASHNPPQYNGIKVWDRDGMAYTPDKEHELEKIIESGNFRRVPWNEVGTLKTANPRKEYIEAILREINLKGSYTVVIDAGNGAGSIVSPYLHRELGNRVITLNSDPSGFFVRELEPNKESLSMLEKTVKVLNADIGIAHDGDADRVGVVDENGEFVEYEVMLSLIAGYMLKKYGKGKIVTTVDAGFALDDYIRELGGEVVRTRVGDVAVAEELVKHGGVFGGEPSGTWIMPQWNLTPDGIFASALVLEMIDRLGPIGELAKDVPKYVTLRKKIPCSNELKNKVMNKIADLIPREFSYERIITIDGIRIENDDWWILFRPSGTEPIMRITLEAHTEEMAERLMKKAENLVKSVIKDLSS,soluble
2,MRMILMFDMPTETAEERKAYRKFRKFLLSEGFIMHQFSVYSKLLLNNTANNAMIGRLKVNNPKKGNITLLTVTEKQFARMVYLHGERNTSVANSDSRLVFLGDSYDQDLEHHHHHH,not soluble
3,MRMNSQWGFKMKILIMGFEYLPVKVGGLAEALTSIAEALASLGHEVLVFTPSHGRFQGSEIGIIKAFGGKVAIKVHLEENGNLRIYRIGGGLLDHQDVYGPGWEGLIRKTVIFGKASVLLLNELLKSEDLPDVLHFHDWHTVFAGALIKKYFRIPAVFTIHRLNKSKIPAFYFHEAGLPELAPYPDLDPEHTGGYIADIVTTVSRGYLLDEWDFFRNFNGKVTYVFNGIDCSFWNENYLKGSRKERRSSILAKFGMSDGITFMFIGRFDRRQKGVDTLLRAIELLSERPEFKEMRFIIIGMGDPELENWARELEKRYDNVRVLTEMLSREFVRELYGSVDFVIIPSYFEPFGLVSLEAMCLGAIPIASSVGGLRDVIVSIDEDHVDGTGLLVKPGDPWDLANAILRMHSIAMDNEFVEKLRDNCKKRAKSFSWENSAKRYLRAYKGNIDRIFDFAMLEHHHHHH,not soluble
4,MRMTLAVHTRQYSIHSFNPSAPIPSKVFAEEVYFICKTEEGLTLVVSSELALDSLEQETNWSCLEVLGPLGFSLTGILSKIASTLADVQISIFALSSFDTDYILVKKDCLQNAMTALKKAGYKIIESKLEHHHHHH,not soluble
5,MRNFDLIRLTEAQWHDRESAHQLRADRLTADHMKRRRAGISHPVYDFLFEYYPVRVAHMKKWHPGVGVGIEGNPPHSRWKGYTTIDDVTVVDVEALKKKRSSTLHYVSNLLKQTQLNPTHFDCFGLHEWAMVYQTSQPRHALPLRLGAQGSNKVVESHNIRCTHFDAFRFFTEPAVPLNFQVLTRENQPSCEQPGCLHAMMDLYKWSAKLGPLIPGDLWLDTFELAWDCRVLDMEASPYDCTDYGLGIVPIETAEGKAEYVRRQRELSERGQLLRQRLVAELDRIDRFTLTS,not soluble
6,MRNILATILLVVMLFLVACTGNNNQLVSQSELVPENTPVDGNQIKAPEETLSSDSMYSDYNGKNIKFRFPKTWEMTEYQADYEYFIRFNLPTKNKNRAPNQVTIVISDMAEKSKNFDYQNKNIFEQYIENDNTMDISNITVDGCNGYKAVSIESETLYISFEKGDLRYDLIFMSDEGEFLELLPEVESMISSISTY,not soluble
7,MRNLLQKCFKWQWLVCLAVGCCFSSCKDDEESTSGYDPNKPIVLTDFYPPEGKLATQVILNGSNFGDSKENVKVFFNDKEASVISVKDDRMLVLAPKRASTIEDPECVVKVQVHEQIEEYKQTFDYYIQTTVTTLVGGSTSAQVNPTGTIPLSEAQFRANIDRCICVDQDKNVFFLVDNDGKFAAFMLNEEADKLISLKSDINALFNSPVLGYNSKDDIVYQFWANRDSHEVYYFDPKTDYAPTTAISSISWDDPNFPNIEGFGVWAAKCNFTMGPDGKMYSRMLGGNLVRIDVENARGENLTNGDLVGTKDGSAYGLVFDPQDENVFYFSNNDKHCIYKYDLRTKECACWAGQEGKSGYLDGPIGQAMFNKPGQMCVDSEGNIILTDTENHCIRKITMSTGYVSTLAGKPQNSGYVNGSAEDAQFKKPLGICIDNDDVMYIGDSENRAIRRLAVELEHHHHHH,soluble
8,MRNPENVLNSLSKHSGNLNYKFERLYRVLFNEEMFYVAYQNIYSKTGNMTAGADGKTIDGMSIDRVEQLIGSLKNETYQPNPSKRTYIPKKNGKKRPLGIPSFDDKLVQEVVRMILEAIYEGSFEHTSHGFRPKRSCHTALIDIQKTFTAVKWFIEGDIKGFFDNINHDVLINILRERIADERFLRLIRKFLNAGYVEDWVFHRTYSGTPQGGIISPILANIYLDKFDKYIKEYINRFNKGVTRKGDARYKLYEQRRYRLAKKLKNEKDVKVRKQMTAEIKRLREERNNYPARNEMDSSIKRLKYVRYADDFLIGITGNLEDCKTVKEDIKNYLNEALKLELSDEKTLITNAQKPAKFLGYDVFIRRCNDLRKDKYGKTVRAFGHKPVLYLNFETMRKKLFDYKAARIAVVNGKEVWKSIVRTYMLNLDDLEIVSQFNAEIRGFYNYYSIANNSYVINSFYHIMSYSMYKVFANKYKSSVKKILLKYKKNKVFQVAYENSKGKTLYQSFYHDGFKRKKVAGNIYCDTIPRTVSITGGRNSLMERLKLQVCELCGATDKLEMHHVRKLKDLKGKSDWEKKMIARRRKTLAVCSKCHAKIDPDRRIRLNLEHHHHHH,soluble
9,MRPFILLALLVSVTVAFNIFRDEVVPEEQLLAVRRTTRDASDSSSDSDEKDDAKTTVTVSFGLSGSQAWPIFQFFSFALKTKKKSKFFRRSGYELRPRP,not soluble
10,MRPLKVALVNIPLRVPGSDAWISVPPQGYGGIQWVVANLMDGLLELGHEVFLLGAPGSPAGRPGLTVVPAGEPEEIERWLRTADVDVVHDHSGGVIGPAGLPPGTAFISSHHFTTRPVNPVGCTYSSRAQRAHCGGGDDAPVIPIPVDPARYRSAADQVAKEDFLLFMGRVSPHKGALEAAAFAHACGRRLVLAGPAWEPEYFDEITRRYGSTVEPIGEVGGERRLDLLASAHAVLAMSQAVTGPWGGIWCEPGATVVSEAAVSGTPVVGTGNGCLAEIVPSVGEVVGYGTDFAPDEARRTLAGLPASDEVRRAAVRLWGHVTIAERYVEQYRRLLAGATWK,soluble
11,MRPNYTVSSSGTNKGSVLAVCNTTYYKSNKLISKNEITLYKGFRSLSTNHKIETIVHEFGHGFGLGHVKTKNAIMLDKGFINKTKPQTDDFNGIKALYKLEHHHHHH,not soluble
12,MRREERNMDKLLISFLLSLFMVYFPPSDVVLPSQFEASTDSYVPMSSYPQETQSAKTPSPGSMHPAELIKEYSPLAQSVRQLSVKPLDEPLINRLEKALAVPVKYQSNYLRILEHHHHHH,not soluble
13,MRREIRRICGFDVSDRWINLFRKKHGIRYFSGRRHADKKDKTIILSALDVTKMKTTNFLKKRRILRTSRKEYADVDLQVNKEIVRRQNKGERLTNPWIKEYAQYVAYQLHPEIPDIAKFFDANWLYRFKRRYCVELKVALNDFLYDLNSIFQPRSPEENTRSTPQTTSNEDIKSSATSMEVVTSPNYLFPHHYFNLFDQNGCGASIVKQEPTREN,not soluble
14,MRRGNRRTPGPVCRQAFRAEFTAIHAPVVFFMSCNRQIVRSLRQQIPSFECVPGCHDCCGPVTTSPEEMSRLPRKTAAEQEAAMDELNCVHLGPNGCTVYDERPLICRLFGTTPSLPCPNGRRPVEMIHPRVEKQIHDYMASTRQVLVLEHHHHHH,not soluble
15,MRRIAIVGGGQAGLPLAFGLLDKGYEVTVVSNRTPDDIRRGKVMSSQCMFDPALQIERELGINGWEADCPPVEGIGFAVPHPEQAGAKAIEWSARLDRPAQSVDQRVKMPAWLEQVQARGGRLLLQDAGIAELEALAQSHDLVILAAGKGEVVKLFERDAARSPFDKPQRALALTYVHGLEPAPDYSRVAFNLIPGVGEYFVFPALTLSGPCDIMVFEGVPGGPLDCWRDVRTPQEHLAASRRFLQTYLPWEADRARNVELTDDKGILAGAFAPTVRKPVMTLPSGRLVFGLGDAVVTNDPITGQGANNATKACKVYLDAILARGEQPYTRDWMEATFEQFWDYAQWVVQWTNSLLTPPPPHILGLLGTAEQAPSLASTIANGFNHPPSYFPWWADAQACEGFIAQHQRTPATATALEHHHHHH,not soluble
16,MRRLLLLVILFGCMSVINLAAGCNAQICTCPGGGYVTYGQYCPVNTPSYSAPPDAPPVDMYYFILDIKNNSYQLVDLKTKNFLTALDRSLSCDRSTQVCTVVSIREYLAVVVSEDNRLFIGKADAFYKGTGKKAEKAAIDDCKKGKEANGNGVMGDGIKGKKCRLIRLFSPNFKLENIETKQKYDLKVTGSL,not soluble
17,MRRLNRFKAPDEKVNTLFQVYKTISFWKVVKNTVVVEFGRFFPWMGGKRNIYRACLGMKIGKKTAIAYKVMPDLFFPEKITIGENSIIGYHTTILTHEYLLSEYHVGEVVIGKNVMVGANVTILPGIEIGDGAIVAAGAVVSKDVPPESFAYGNPLVIKEKAALEHHHHHH,soluble
18,MRRNSKERKNRATRRSQGSYQEIIGRTWIFRGAHRGRVTRRNIIWHELIGLRVRIVGSTHPAFVGIEGYVIDETRNMLVIAGDRIWKVPKDVCIFEFEADDGTKIKIPGERLVGRPEMRLKKRWKKWLEHHHHHH,not soluble
19,MRRVFSSQAIQTAIEKSLPDLQKIVGNSSVRTQESVRRQFARDESHFIAPPPAVVLEPTNVEQVSEILKLCNDRAIPVVPFGTGTGLEGGSMSTLGGICISTQQIIGDPVLREQDFVCSVKPSTTRIALNDAIKNSGLFFPVDPGADASVCGMVATSASGTNAIRYGTMKENVVNLEVVLADGTIIDTKGKGRCPRKSSAGFNFTELFVGSEGTLGIITEATVKVHPRPQFLSAAVCSFPTVHEAASTVVEVLQWNIPVARIELLDTVQIQACNSYSSLNLRESPTLFIEFHGSNEKEVADQTSAVEDICKSHEALDFDSGASPDKRATLWKARHNAYYAALAMRTGARGFTTDVCVPISKLADVISETRSDLDEHEILGTVVGHVGDGNFHVILPTIEEDKTEHRKIQSFSDRLVRRALAADGTCTGEHGIGLGKRKYLREELGENTVRLMHTIKHALDPNNIMNPGKVLPEL,soluble
20,MRSMWALLSVADKRGIVDFARGLAELGFRLLATGGTYRALREAGLPVTYISDFTGFPEILEGRVKTLHPKVHAALLARPDQEEELKALGLERIGVLAVNLYPFRETVARGASFAEALEQIDIGGPAMLRAAAKNHQAVLPVCDPEDYPRVLEALKAGPSPDFRQKLARKAFAHTALYDAAIAEWLSGEKFPEEKLLALRREASLRYGENPHQEAALYRVVGERGPLLEAQVLQGKAMSFNNYLDAEAAWNLVSEFAEPACVAVKHQNPCGVALGETPLEAYRKAYEADPVSIFGGIVAFNRPLDGPTAEALAEVFLEVVLAPSFSPEARAVLARKKNLRLLQVPFPAQGPYLDLRRLRGGVLLQDADTEDPAEPKVVTERAPTPEEWPDLRFAWKVVKHVRSNAIVVAKGGMTLGIGVGQTNRLAAARHALEAAGERAKGAVLASDAFFPFDDVVRLAASYGIAAIIQPGGSVRDQDSIRAAEEAGIAMVFTGVRHFRH,soluble
21,MRSRPTEGNLLVSIGIPFLNPGPYLDLAVRSVFAQTYLNWELILVDDGSTDGSYERAVAIQDPRVRVLRDGQNKGLPARLNEIVRLAKGELVARMDADDAMHPLRLEKQVGFLQANPELDGVTTGAYLIDAEDRPIALLPGRQPSAQEVLARGGFLHPSLLARKSWFEAHPYSLDYPRAEDRELFVRTFKTSRLHVLSEPLYFYRWFGVPRGKTLRIGYRSERKVMWKYGPNLVGWGPSLRLIALSFGKELLTWFLEWTHLEKGFQTRRAFQPLLEMDQREALRTLKVIRETCVPGWDLEHHHHHH,not soluble
22,MRSVTLPLLMFCLGLAACSGDGGRRPSTCEVISPPDVMVPTEQNRQRVEQQSSGDPTAGQKPVECP,not soluble
23,MRTIDDRIVHSLNTTVPTASFSGKVDATQTCKELYESLMEAHLSRDKAIKSCIKETSAVVSQLREERAKDSDNLSVIKQLRKEQTKLKLMQSELNVEEVVNDRSLKVFNERCRIHYTPPKIK,soluble
